Results on 3 molecules are retold here after patent US20200369776A1 (ADAGENE, published 2020).

Holding throughout (experiment): FACS, HEK293F
(In general: Flow cytometry measures light scatter and fluorescence of single cells or particles in a stream.)

The target in experiment [1] is human CD137 mutant Hu_GT150AA on HEK293F cells (human, UniProt Q07011 18-255).
Procedure: (§1) Transfected cells were washed in pre-chilled staining buffer (PBS supplemented with 2% FBS), then incubated with 100 nM test antibodies for 1 hr on ice. […] Samples were washed once with staining buffer prior to analysis by flow cytometry.
(§2) To determine the binding regions of the tested antibodies at amino acid residue level, a series of mutations (Table 5) were made at the extracellular domain of human CD137. These CD137 mutation plasmids were used to transfect HEK293F cells.
For experiment [2], the target named is human CD137 mutant Hu_PW135AA on HEK293F cells (human, UniProt Q07011 18-255).
Procedure: as §1, §2
For experiment [3], the target named is human CD137 mutant Hu_FN125AA on HEK293F cells (human, UniProt Q07011 18-255).
Procedure: as §1, §2
Experiment [4] concerns the target T1, human CD137 mutant Hu_FSS53AAA on HEK293F cells (human, UniProt Q07011 18-255).
T1 chain: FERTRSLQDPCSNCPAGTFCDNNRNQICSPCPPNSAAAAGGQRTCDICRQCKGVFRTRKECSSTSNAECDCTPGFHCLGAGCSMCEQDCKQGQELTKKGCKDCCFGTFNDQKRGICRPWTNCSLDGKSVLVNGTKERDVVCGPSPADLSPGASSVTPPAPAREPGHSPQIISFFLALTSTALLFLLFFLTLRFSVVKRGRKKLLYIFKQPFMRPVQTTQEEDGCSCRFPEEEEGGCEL
Procedure: as §1, §2

B1: AG10058 (antibody, human IgG4 S228P, kappa, V domains shown)
VH: EVQLVESGGGLVQPGGSLRLSCAASGFSLSTSGVGVGWIRQAPGKGLEWLALIDWDDDKYYSPSLKSRLTISRDNSKNTLYLQLNSLRAEDTAVYYCARGGSDTVLGDWFAYWGQGTLVTVSS
VL: DIQLTQSPSSLSASVGDRVTITCRASQSVSPYLAWYQQKPGKAPKLLIYDASSLESGVPSRFSGSGSGTDFTLTISSLQPEDFATYYCQQGYSLWTFGQGTKVEIKR
notes: IgG4 (S241P)
Consider B1, for which the binding result in experiment [1] and in experiment [2] was “binds” in each case.

B2: AG10059 (antibody, human IgG4 S228P, kappa, V domains shown)
VH: EVQLVESGGGLVQPGGSLRLSCAASGYSITSGHYWAWIRQAPGKGLEWVSSISGYGSTTYYADSVKGRFTISRDNSKNTLYLQLNSLRAEDTAVYYCARGGSDAVLGDWFAYWGQGTLVTVSS
VL: DIQLTQSPSSLSASVGDRVTITCRASQGIGSFLAWYQQKPGKAPKLLIYDASNLETGVPSRFSGSGSGTDFTLTISSLQPEDFATYYCQQGYYLWTFGQGTKVEIKR
notes: IgG4 (S241P)
As for B2, the binding result in experiment [1] and in experiment [2] was “binds” throughout.

B3: reference antibody AC1121 (antibody, V domains shown)
VH: QVQLQQWGAGLLKPSETLSLTCAVYGGSFSGYYWSWIRQSPEKGLEWIGEINHGGYVTYNPSLESRVTISVDTSKNQFSLKLSSVTAADTAVYYCARDYGPGNYDWYFDLWGRGTLVTVSS
VL: EIVLTQSPATLSLSPGERATLSCRASQSVSSYLAWYQQKPGQAPRLLIYDASNRATGIPARFSGSGSGTDFTLTISSLEPEDFAVYYCQQRSNWPPALTFGGGTKVEIK
Take B3: the binding result in experiment [1], in experiment [3], in experiment [2] and in experiment [4] was “binds” each time.
